Laboratory results published in the Immune Epitope Database (IEDB).

Columns and labels:
Test in all cases: IEDB peptide-MHC binding, purified MHC/competitive/radioactivity; filed as Kd, often an IC50 or EC50 that approximates it; ≥ and ≤ were set here for values at or beyond the usual limits of such assays
HLA-A*26:01 = target: HLA-A*26:01
HLA-A*29:02 = target: HLA-A*29:02
HLA-A*30:02 = target: HLA-A*30:02
HLA-A*24:02 = target: HLA-A*24:02
HLA-A*01:01 = target: HLA-A*01:01
HLA-A*23:01 = target: HLA-A*23:01
HLA-A*02:06 = details: source organism: Dengue virus 1 Brazil/97-11/1997
HLA-B*08:01 = target: HLA-B*08:01
HLA-B*40:01 = target: HLA-B*40:01
HLA-B*44:03 = target: HLA-B*44:03
HLA-B*44:02 = target: HLA-B*44:02
HLA-A*30:01 = details: source organism: Mammarenavirus choriomeningitidis
HLA-A*32:01 = details: source organism: Mammarenavirus choriomeningitidis
HLA-B*07:02 = target: HLA-B*07:02
[1] = source organism: SARS coronavirus Tor2
[2] = source organism: Dengue virus 1 Brazil/97-11/1997
[3] = source organism: Dengue virus 4 Philippines/H241/1956
[4] = source organism: Dengue virus 3 Martinique/1243/1999
[5] = source organism: Dengue virus 2 Jamaica/1409/1983
[6] = source organism: Mammarenavirus juninense
[7] = source organism: Mammarenavirus machupoense
[8] = source organism: Mammarenavirus choriomeningitidis
[9] = source organism: Mammarenavirus guanaritoense

## LYLYALIYF
HLA-A*26:01; [1]
  Kd: 12.6 µM
HLA-A*29:02; [1]
  Kd: 0.000143 µM
HLA-A*30:02; [1]
  Kd: ≥ 81.1 µM
HLA-A*24:02; [1]
  Kd: 0.00101 µM
HLA-A*01:01; [1]
  Kd: 5.16 µM
HLA-A*23:01; [1]
  Kd: 0.0785 nM

## MLLNRFTMA
HLA-A*02:06
  Kd: 0.00512 µM
HLA-B*08:01; [2]
  Kd: 0.0102 µM

## MTDKTPVHS
HLA-A*01:01; [3]
  Kd: 6.57 µM

## NEAKITDIM
HLA-B*40:01; [2]
  Kd: 0.0831 µM
HLA-B*44:03; [2]
  Kd: 4.13 µM

## NEGVMAVGL
HLA-B*40:01; [4]
  Kd: 0.226 µM
HLA-B*44:03; [4]
  Kd: 1.81 µM

## NENDQYIYM
HLA-B*44:02; [5]
  Kd: 0.0255 µM
HLA-B*44:03; [5]
  Kd: 0.208 µM

## NERRAWNFL
HLA-B*44:03; [3]
  Kd: 2.09 µM

## NVSLVKPTVY
HLA-A*26:01; [1]
  Kd: 16.3 µM
HLA-A*29:02; [1]
  Kd: 2.41 µM
HLA-A*30:02; [1]
  Kd: 1.17 µM
HLA-A*24:02; [1]
  Kd: ≥ 70.3 µM
HLA-A*01:01; [1]
  Kd: 12.4 µM
HLA-A*23:01; [1]
  Kd: ≥ 70000 nM

## PFWITAIYVF
HLA-A*26:01; [1]
  Kd: 0.724 µM
HLA-A*29:02; [1]
  Kd: 0.657 µM
HLA-A*30:02; [1]
  Kd: 16 µM
HLA-A*24:02; [1]
  Kd: 0.00192 µM
HLA-A*01:01; [1]
  Kd: 0.41 µM
HLA-A*23:01; [1]
  Kd: 0.189 nM

## PTEQVDTLL
HLA-A*01:01; [3]
  Kd: 14.8 µM

## PYIGSRSQI
HLA-A*29:02; [6]
  Kd: ≥ 21 µM
HLA-A*24:02; [6]
  Kd: 1.08 µM
HLA-A*23:01; [6]
  Kd: 312 nM

## QCGDPSSFDY
HLA-A*26:01; [7]
  Kd: ≥ 69.7 µM
HLA-A*29:02; [7]
  Kd: 5.83 µM
HLA-A*30:02; [7]
  Kd: 3.31 µM
HLA-A*24:02; [7]
  Kd: ≥ 70.3 µM
HLA-A*01:01; [7]
  Kd: 1.4 µM
HLA-A*23:01; [7]
  Kd: ≥ 28800 nM

## QEHETSWHY
HLA-B*44:02; [5]
  Kd: 0.0467 µM
HLA-B*44:03; [5]
  Kd: 0.0296 µM

## QFKDNVILL
HLA-A*26:01; [1]
  Kd: ≥ 27.5 µM
HLA-A*29:02; [1]
  Kd: ≥ 21.7 µM
HLA-A*30:02; [1]
  Kd: ≥ 40 µM
HLA-A*24:02; [1]
  Kd: 1.13 µM
HLA-A*01:01; [1]
  Kd: ≥ 51.8 µM
HLA-A*23:01; [1]
  Kd: 1150 nM

## QLQSPGVADY
HLA-A*26:01; [8]
  Kd: 7.7 µM
HLA-A*29:02; [8]
  Kd: ≥ 24.9 µM
HLA-A*30:01
  Kd: ≥ 70.4 µM
HLA-A*30:02; [8]
  Kd: 0.043 µM
HLA-A*32:01
  Kd: ≥ 69.9 µM
HLA-A*01:01; [8]
  Kd: 0.29 µM

## RELKCGSGI
HLA-B*40:01; [2]
  Kd: 0.0138 µM
HLA-B*44:02; [2]
  Kd: 0.119 µM

## RPLKEKEENL
HLA-B*08:01; [5]
  Kd: 1.82 µM

## RPRWLDARV
HLA-B*07:02; source organism: Dengue virus 4 Dominica/814669/1981
  Kd: 0.0017 µM

## RPTPKGAVMD
HLA-B*07:02; [3]
  Kd: 0.1 µM

## SAIFFTTSLF
HLA-A*29:02; [9]
  Kd: 0.0879 µM
HLA-A*24:02; [9]
  Kd: 0.452 µM
HLA-A*23:01; [9]
  Kd: 80.8 nM
